From the Immune Epitope Database (IEDB)
Each block holds one sequence with its values, some of them ahead of it.

Columns and labels:
[1] = target: HLA-B*39:01; assay: IEDB peptide-MHC binding, purified MHC/competitive/fluorescence; filed as Kd, often an IC50 or EC50 that approximates it; ≥ and ≤ were set here for values at or beyond the usual limits of such assays; details: source organism: Escherichia coli 536
[2] = target: HLA-B*40:01; assay: as above; details: source organism: Escherichia coli 536
[3] = target: HLA-B*07:02; assay: IEDB peptide-MHC binding, purified MHC/direct/fluorescence; filed as Kd, often an IC50 or EC50 that approximates it; ≥ and ≤ were set here for values at or beyond the usual limits of such assays; details: source organism: Macaca fascicularis
[4] = target: HLA-C*12:03; assay: as above
[5] = target: HLA-A*02:01; assay: IEDB peptide-MHC binding, purified MHC/competitive/fluorescence; filed as Kd, often an IC50 or EC50 that approximates it; ≥ and ≤ were set here for values at or beyond the usual limits of such assays
[6] = target: HLA-B*15:01; assay: as above; details: source organism: Homo sapiens
[7] = target: HLA-B*18:01; assay: as above; details: source organism: Homo sapiens
[8] = target: HLA-B*51:01; assay: as above; details: source organism: Homo sapiens
[9] = target: HLA-A*01:01; assay: IEDB peptide-MHC binding, purified MHC/direct/fluorescence; filed as Kd, often an IC50 or EC50 that approximates it; ≥ and ≤ were set here for values at or beyond the usual limits of such assays; details: source organism: SARS-CoV1
[10] = target: HLA-A*26:01; assay: as above
[11] = target: HLA-B*15:01; assay: as above
[12] = target: HLA-B*40:01; assay: as above; details: source organism: SARS-CoV1
[13] = target: HLA-B*58:01; assay: as above; details: source organism: SARS-CoV1
[14] = target: HLA-C*08:02; assay: as above
[15] = target: HLA-A*23:01; assay: IEDB peptide-MHC binding, purified MHC/competitive/radioactivity; filed as Kd, often an IC50 or EC50 that approximates it; ≥ and ≤ were set here for values at or beyond the usual limits of such assays; details: source organism: SARS coronavirus Tor2
[16] = target: HLA-A*24:02; assay: as above; details: source organism: SARS coronavirus Tor2
[17] = target: HLA-A*29:02; assay: as above; details: source organism: SARS coronavirus Tor2
[18] = target: HLA-A*30:02; assay: as above; details: source organism: SARS coronavirus Tor2
[19] = target: HLA-A*02:19; assay: IEDB peptide-MHC binding, purified MHC/direct/fluorescence; filed as Kd, often an IC50 or EC50 that approximates it; ≥ and ≤ were set here for values at or beyond the usual limits of such assays; details: source organism: Vibrio cholerae O1 biovar El Tor
[20] = target: HLA-A*03:01; assay: as above; details: source organism: Vibrio cholerae O1 biovar El Tor
[21] = target: HLA-B*18:01; assay: as above; details: source organism: Vibrio cholerae O1 biovar El Tor
[22] = target: HLA-B*27:03; assay: as above; details: source organism: Vibrio cholerae O1 biovar El Tor
[23] = target: HLA-B*46:01; assay: as above; details: source organism: Vibrio cholerae O1 biovar El Tor
[24] = target: HLA-B*51:01; assay: as above; details: source organism: Vibrio cholerae O1 biovar El Tor
[25] = target: HLA-C*03:03; assay: as above
[26] = target: HLA-A*03:01; assay: IEDB peptide-MHC binding, purified MHC/competitive/radioactivity; filed as Kd, often an IC50 or EC50 that approximates it; ≥ and ≤ were set here for values at or beyond the usual limits of such assays; details: source organism: Vaccinia virus WR
[27] = target: HLA-A*11:01; assay: as above; details: source organism: Vaccinia virus WR
[28] = target: HLA-A*31:01; assay: as above; details: source organism: Vaccinia virus WR
[29] = target: HLA-A*33:01; assay: as above; details: source organism: Vaccinia virus WR
[30] = target: HLA-A*68:01; assay: as above; details: source organism: Vaccinia virus WR
[31] = target: HLA-B*07:02; assay: as above; details: source organism: Vaccinia virus WR
[32] = target: HLA-B*35:01; assay: as above; details: source organism: Vaccinia virus WR
[33] = target: HLA-B*51:01; assay: as above; details: source organism: Vaccinia virus WR
[34] = target: HLA-B*53:01; assay: as above; details: source organism: Vaccinia virus WR
[35] = target: HLA-B*54:01; assay: as above; details: source organism: Vaccinia virus WR
[36] = target: HLA-A*01:01; assay: IEDB peptide-MHC binding, purified MHC/competitive/fluorescence; ≥ and ≤ were set here for values at or beyond the usual limits of such assays
[37] = target: HLA-A*01:01; assay: IEDB peptide-MHC binding, purified MHC/competitive/fluorescence; filed as Kd, often an IC50 or EC50 that approximates it; ≥ and ≤ were set here for values at or beyond the usual limits of such assays; details: source organism: Escherichia coli APEC O1
[38] = target: HLA-A*26:01; assay: as above; details: source organism: Escherichia coli APEC O1
[39] = target: HLA-B*58:01; assay: as above; details: source organism: Escherichia coli APEC O1
[40] = target: HLA-C*05:01; assay: IEDB peptide-MHC binding, purified MHC/direct/fluorescence; filed as Kd, often an IC50 or EC50 that approximates it; ≥ and ≤ were set here for values at or beyond the usual limits of such assays; details: source organism: Yersinia pestis Nepal516
[41] = target: HLA-C*06:02; assay: as above; details: source organism: Yersinia pestis Nepal516
[42] = target: HLA-C*14:02; assay: as above; details: source organism: Yersinia pestis Nepal516
[43] = target: HLA-C*15:02; assay: as above; details: source organism: Yersinia pestis Nepal516
[44] = target: HLA-B*08:01; assay: IEDB peptide-MHC binding, purified MHC/competitive/fluorescence; filed as Kd, often an IC50 or EC50 that approximates it; ≥ and ≤ were set here for values at or beyond the usual limits of such assays; details: source organism: Yersinia pestis Nepal516
[45] = target: HLA-B*15:01; assay: IEDB peptide-MHC binding, purified MHC/competitive/fluorescence; ≥ and ≤ were set here for values at or beyond the usual limits of such assays; details: source organism: Vaccinia virus Copenhagen
[46] = source organism: Vibrio cholerae O1 biovar El Tor
[47] = source organism: Vibrio cholerae B33
[48] = source organism: Vaccinia virus Copenhagen

Kd [1]: 27 nM
Kd [2]: 8.3 nM
Sequence: EEQQSMLAL

Kd [3]: 3.1 nM
Kd ([4]; source organism: Homo sapiens): ≤ 1 nM
Kd ([5]; source organism: Homo sapiens): ≥ 20000 nM
Kd [6]: ≥ 20000 nM
Kd [7]: ≥ 20000 nM
Kd [8]: ≥ 20000 nM
Sequence: FAAPHRGVA

Sequence: FADINGKLY
Kd [9]: 191 nM
Kd ([10]; source organism: SARS-CoV1): 562 nM
Kd ([11]; source organism: SARS-CoV1): 3140 nM
Kd [12]: ≥ 71300 nM
Kd [13]: 2250 nM
Kd ([14]; source organism: SARS-CoV1): ≤ 1 nM
Kd [15]: ≥ 77800 nM
Kd [16]: ≥ 77600 nM
Kd [17]: 17 nM
Kd [18]: 1600 nM

Sequence: FATPAFFLI
Kd [19]: ≥ 20000 nM
Kd [20]: ≥ 20000 nM
Kd [10, 46]: ≥ 20000 nM
Kd [11, 46]: ≥ 20000 nM
Kd [21]: ≥ 20000 nM
Kd [22]: ≥ 20000 nM
Kd [23]: ≥ 20000 nM
Kd [24]: 859 nM
Kd [25, 47]: ≤ 1 nM
Kd [14, 47]: 198 nM

Sequence: RVYEALYYV
Kd [25, 48]: 1240 nM
Kd [14, 48]: ≥ 20000 nM
Kd [4, 48]: 26 nM
Kd [5, 48]: 0.8 nM
Kd [26]: 717 nM
Kd [27]: 80.2 nM
Kd [28]: 13.7 nM
Kd [29]: ≥ 77700 nM
Kd [30]: ≥ 77700 nM
Kd [31]: ≥ 53800 nM
Kd [32]: ≥ 77400 nM
Kd [33]: ≥ 67800 nM
Kd [34]: ≥ 78200 nM
Kd [35]: 6410 nM

Sequence: SSDPGTNTT
IC50 ([36]; source organism: Zaire ebolavirus): ≥ 162000 nM

Kd ([14]; source organism: Escherichia coli APEC O1): 1010 nM
Kd [37]: 5.1 nM
Kd [38]: 16 nM
Kd [39]: 36 nM
Sequence: YTTDVNQLY

Sequence: YVIKKSSPL
Kd ([25]; source organism: Yersinia pestis Nepal516): 2 nM
Kd [40]: ≥ 20000 nM
Kd [41]: ≥ 20000 nM
Kd [42]: 163 nM
Kd [43]: 3950 nM
Kd [44]: 196 nM

Sequence: YVTLNASQY
IC50 [36, 48]: 17100 nM
IC50 [45]: 8060 nM
Kd [26]: 4770 nM
Kd [27]: 1120 nM
Kd [28]: ≥ 51400 nM
Kd [29]: ≥ 77700 nM
Kd [30]: 10.7 nM
